Results reported in patent US20240209065A1.
Read-outs that look alike come from different tables or passages of the source.

Legend:
[1] = biological target: SARS-CoV-2 Omicron BA.2 RBD, aa 319-541, C-terminal 6xHis-tag (SARS-CoV-2) (UniProt P0DTC2); experiment: ELISA, plates coated with RBD
[2] = biological target: SARS-CoV-2 Omicron BA.2 RBD, aa 319-541, C-terminal 6xHis-tag (SARS-CoV-2) (UniProt P0DTC2)
[3] = biological target: S protein of authentic SARS-CoV-2 Omicron BA.5 virus (SARS-CoV-2) (UniProt P0DTC2); experiment: cell-based or functional assay
[4] = biological target: S protein of authentic SARS-CoV-2 Omicron BA.1 virus (SARS-CoV-2) (UniProt P0DTC2); experiment: cell-based or functional assay
[5] = biological target: SARS-CoV-2 Omicron BA.4/5 RBD, aa 319-541, C-terminal 6xHis-tag (SARS-CoV-2) (UniProt P0DTC2)

DXP-604 IgG (antibody)
EC50 [1]: 9.48 nM | EC50 [2]: 9.48 nM | IC50, microneutralization assay with authentic virus [3]: 12.4 nM | IC50, microneutralization assay with authentic virus [4]: 22.9 nM | EC50 [5]: 1.6 nM
